Source: patent US20160091500

T1: intact chondroadherin (CHAD) polypeptide, human
T1 sequence: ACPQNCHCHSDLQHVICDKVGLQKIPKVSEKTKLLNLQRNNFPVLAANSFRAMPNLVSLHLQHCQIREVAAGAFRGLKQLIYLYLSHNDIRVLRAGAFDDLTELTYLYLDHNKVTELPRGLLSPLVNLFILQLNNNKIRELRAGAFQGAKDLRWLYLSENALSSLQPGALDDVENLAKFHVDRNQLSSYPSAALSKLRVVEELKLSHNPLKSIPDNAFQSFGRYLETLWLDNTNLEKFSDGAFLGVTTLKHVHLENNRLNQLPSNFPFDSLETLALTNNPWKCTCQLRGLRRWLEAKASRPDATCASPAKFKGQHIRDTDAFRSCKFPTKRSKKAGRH


Tested on: T1, intact chondroadherin (CHAD) polypeptide, human

Sequence of MMP-12 (P39900 106-470): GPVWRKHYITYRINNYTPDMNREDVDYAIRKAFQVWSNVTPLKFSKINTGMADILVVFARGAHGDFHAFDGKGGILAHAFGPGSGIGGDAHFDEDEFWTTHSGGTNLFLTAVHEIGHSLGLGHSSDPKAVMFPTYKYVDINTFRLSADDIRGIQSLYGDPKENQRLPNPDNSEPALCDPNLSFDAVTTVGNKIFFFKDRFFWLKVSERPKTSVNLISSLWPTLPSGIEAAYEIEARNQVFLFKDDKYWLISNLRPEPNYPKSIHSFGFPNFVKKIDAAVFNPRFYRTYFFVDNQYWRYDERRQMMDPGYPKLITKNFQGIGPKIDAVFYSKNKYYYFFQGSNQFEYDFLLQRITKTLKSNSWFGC

Row | Molecule | CHAD fragmentation after protease digestion of normal disc tissue (SDS-PAGE, immunoblot)
1 | ADAMTS5 | digestions performed with ADAMTS4 and ADAMTS5 also did not generate CHAD fragments
2 | MMP-3 | Digestion with MMPs 3, 7, 12 and 13, showed no evidence of CHAD fragments retained in the tissue
3 | MMP-12 | Digestion with MMPs 3, 7, 12 and 13, showed no evidence of CHAD fragments retained in the tissue
4 | MMP-13 | Digestion with MMPs 3, 7, 12 and 13, showed no evidence of CHAD fragments retained in the tissue
5 | Recombinant cathepsin B | Digestions performed with cathepsins B and L showed extensive degradation of CHAD
6 | Recombinant cathepsin L | Digestions performed with cathepsins B and L showed extensive degradation of CHAD
7 | Recombinant cathepsin K (enzyme, UniProt P43235 115-329, looked up, species assumed) Cathepsin K: APDSVDYRKKGYVTPVKNQGQCGSCWAFSSVGALEGQLKKKTGKLLNLSPQNLVDCVSENDGCGGGYMTNAFQYVQKNRGIDSEDAYPYVGQEESCMYNPTGKAAKCRGYREIPEGNEKALKRAVARVGPVSVAIDASLTSFQFYSKGVYYDESCNSDNLNHAVLAVGYGIQKGNKHWIIKNSWGENWGNKGYILMARNKNNACGIANLASFPKM | cathepsin K generated a CHAD fragment large enough to be retained in the gel and similar in size to that generated in situ
8 | ADAMTS4 (enzyme, UniProt O75173 213-837, looked up, species assumed) A disintegrin and metalloproteinase with thrombospondin motifs 4: FASLSRFVETLVVADDKMAAFHGAGLKRYLLTVMAAAAKAFKHPSIRNPVSLVVTRLVILGSGEEGPQVGPSAAQTLRSFCAWQRGLNTPEDSDPDHFDTAILFTRQDLCGVSTCDTLGMADVGTVCDPARSCAIVEDDGLQSAFTAAHELGHVFNMLHDNSKPCISLNGPLSTSRHVMAPVMAHVDPEEPWSPCSARFITDFLDNGYGHCLLDKPEAPLHLPVTFPGKDYDADRQCQLTFGPDSRHCPQLPPPCAALWCSGHLNGHAMCQTKHSPWADGTPCGPAQACMGGRCLHMDQLQDFNIPQAGGWGPWGPWGDCSRTCGGGVQFSSRDCTRPVPRNGGKYCEGRRTRFRSCNTEDCPTGSALTFREEQCAAYNHRTDLFKSFPGPMDWVPRYTGVAPQDQCKLTCQAQALGYYYVLEPRVVDGTPCSPDSSSVCVQGRCIHAGCDRIIGSKKKFDKCMVCGGDGSGCSKQSGSFRKFRYGYNNVVTIPAGATHILVRQQGNPGHRSIYLALKLPDGSYALNGEYTLMPSPTDVVLPGAVSLRYSGATAASETLSGHGPLAQPLTLQVLVAGNPQDTRLRYSFFVPRPTPSTPRPTPQDWLHRRAQILEILRRRPWAGRK | digestions performed with ADAMTS4 and ADAMTS5 also did not generate CHAD fragments
9 | MMP-7 (enzyme, UniProt P09237 95-267, looked up, species assumed) Matrilysin: YSLFPNSPKWTSKVVTYRIVSYTRDLPHITVDRLVSKALNMWGKEIPLHFRKVVWGTADIMIGFARGAHGDSYPFDGPGNTLAHAFAPGTGLGGDAHFDEDERWTDGSSLGINFLYAATHELGHSLGMGHSSDPNAVMYPTYGNGDPQNFKLSQDDIKGIQKLYGKRSNSRKK | Digestion with MMPs 3, 7, 12 and 13, showed no evidence of CHAD fragments retained in the tissue
